First the molecules themselves.
B1: Peptide D44 (peptide)
peptide: GGSLAFGTLLCIAIVLRFKKA
notes: alanine-scan variant of the domain IV 21-mer
B2: Peptide D57 (peptide)
peptide: GGSLAFATLLCIAIVLRFKKT
notes: as for B1
B3: Peptide D53 (peptide)
peptide: GGSLAFGTLLAIAIVLRFKKT
notes: as for B1
B4: Peptide D48 (peptide)
peptide: GGSLAFGTLLCIAIVLAFKKT
notes: as for B1
B5: Peptide D50 (peptide)
peptide: GGSLAFGTLLCIAIALRFKKT
notes: as for B1
B6: Peptide D45 (peptide)
peptide: GGSLAFGTLLCIAIVLRFKAT
notes: as for B1
B7: Peptide D47 (peptide)
peptide: GGSLAFGTLLCIAIVLRAKKT
notes: as for B1
B8: Peptide D49 (peptide)
peptide: GGSLAFGTLLCIAIVARFKKT
notes: as for B1
B9: Peptide D56 (peptide)
peptide: GGSLAFGALLCIAIVLRFKKT
notes: as for B1
B10: Peptide D46 (peptide)
peptide: GGSLAFGTLLCIAIVLRFAKT
notes: as for B1
B11: Peptide D55 (peptide)
peptide: GGSLAFGTALCIAIVLRFKKT
notes: as for B1
B12: Peptide D51 (peptide)
peptide: GGSLAFGTLLCIAAVLRFKKT
notes: as for B1
B13: Peptide D54 (peptide)
peptide: GGSLAFGTLACIAIVLRFKKT
notes: as for B1
B14: Peptide D52 (peptide)
peptide: GGSLAFGTLLCAAIVLRFKKT
notes: as for B1

In patent publication US20040092720A1 (US Dept. of Health and Human Services, published 2004) one finds Counts/minute bound and Counts/minute bound (counts/minute) data, which are given here for 59 molecules.

One test deals with T1, recombinant human IL-6 (human, UniProt P05231 30-212, labeled with radioactive iodine).
T1 construct: Labeled probe in solution, added to wells that carry the synthetic peptides; also called IL-6 ligand; Interleukin-6
The test can be described thus: radioiodinated IL-6 on peptide array; experiment D11-D57. The method, then: Synthetic peptide arrays were constructed in 96-well microtiter plates in accordance with the method set forth in WO 91/02714 (Saxinger), and used to test the binding of recombinant human IL-6 that had been labeled with radioactive iodine (radiolabeling by standard methods). After incubating the radiolabeled IL-6 ligand in a well with each synthetic peptide, a washing step was performed to remove unbound label, and the relative level of radioactivity remaining in each well of the plate was evaluated to determine the relative affinity of each peptide for IL-6 ligand.
Consider GGSLAFG (also called GGSLAFG) [Peptide D25], for which the Counts/minute bound is 952 counts/minute.

Consider GGSLAF (also called GGSLAF) [Peptide D26], for which the Counts/minute bound stood at 1050 counts/minute.

On to LRFKKT [Peptide D42], for which the Counts/minute bound (counts/minute) is 1960.

As to LAFGTLLCIAIVLRFKKT [Peptide D30], the Counts/minute bound worked out at 22700 counts/minute.

As to FGTLLCIAIVLRFKKT [Peptide D32], the Counts/minute bound was 21800 counts/minute.

In the case of GGSLAFGTLLCIAI [Peptide D18], the Counts/minute bound is 1180 counts/minute.

Take SLAFGTLLCIAIVLRFKKT [Peptide D29]: the Counts/minute bound amounted to 24700 counts/minute.

As to GGSLAFGT [Peptide D24], the Counts/minute bound worked out at 981 counts/minute.

Take GGSLAFGTLLCIAIVL [Peptide D16]: the Counts/minute bound was determined as 2460 counts/minute.

GGSLAFGTLLCIA [Peptide D19]: the Counts/minute bound is 1150 counts/minute.

Regarding GGSLAFGTLLCI [Peptide D20], the Counts/minute bound is 1200 counts/minute.

GGSLAFGTLL [Peptide D22]: the Counts/minute bound turned out to be 1000 counts/minute.

As to GGSLAFGTL [Peptide D23], the Counts/minute bound is 997 counts/minute.

As to GSLAFGTLLCIAIVLRFKKT [Peptide D28], the Counts/minute bound was determined as 26400 counts/minute.

Regarding GGSLAFGTLLC [Peptide D21], the Counts/minute bound turned out to be 1110 counts/minute.

For AFGTLLCIAIVLRFKKT [Peptide D31], the Counts/minute bound was 24000 counts/minute.

Turning to GGSLAFGTLLCIAIVLRFKK [Peptide D12], the Counts/minute bound came out at 18100 counts/minute.

Turning to GGSLAFGTLLCIAIVLR [Peptide D15], the Counts/minute bound came out at 3950 counts/minute.

For B1, the Counts/minute bound came out at 21400 counts/minute.

Regarding B2, the Counts/minute bound worked out at 22300 counts/minute.

For B3, the Counts/minute bound is 34900 counts/minute.

As for B4, the Counts/minute bound is 29400 counts/minute.

Consider B5, for which the Counts/minute bound was 17900 counts/minute.

With B6, the Counts/minute bound came to 28600 counts/minute.

Consider B7, for which the Counts/minute bound came out at 20900 counts/minute.

As to B8, the Counts/minute bound came out at 22100 counts/minute.

Regarding B9, the Counts/minute bound came out at 23000 counts/minute.

Consider B10, for which the Counts/minute bound amounted to 30800 counts/minute.

As for B11, the Counts/minute bound was found to be 22100 counts/minute.

Consider B12, for which the Counts/minute bound was 28500 counts/minute.

With B13, the Counts/minute bound came out at 22000 counts/minute.

For B14, the Counts/minute bound came to 27700 counts/minute.

For the molecule GGSLAFGTLLCIAIV [Peptide D17], the Counts/minute bound worked out at 1340 counts/minute.

Turning to GGSLAFGTLLCIAIVLRFK [Peptide D13], the Counts/minute bound stood at 16100 counts/minute.

As to GGSLAFGTLLCIAIVLRF [Peptide D14], the Counts/minute bound came out at 7690 counts/minute.

The next test deals with T1, recombinant human IL-6. The test can be described thus: radioiodinated IL-6 on peptide array.
With VSAADAFGPGTEGQVERFETVGME [Peptide E88], the Counts/minute bound is 1090 counts/minute.

For RQQYFKQNCSQHESSPDISHFERS [Peptide E82], the Counts/minute bound was found to be 1090 counts/minute.

In the case of QMYSDGNFTDVSVVEIEANDKKPF [Peptide E69], the Counts/minute bound came to 1190 counts/minute.

Take QHESSPDISHFERSKQVSSVNEED [Peptide E83]: the Counts/minute bound came to 1250 counts/minute.

On to TEGHSSGIGGSSCMSSSRPSISSS [Peptide E73], for which the Counts/minute bound was 1060 counts/minute.

With QNTSSTVQYSTVVHSGYRHQVPSV [Peptide E76], the Counts/minute bound was 1200 counts/minute.

As for FERSKQVSSVNEEDFVRLKQQISD [Peptide E84], the Counts/minute bound is 1020 counts/minute.

With ISSSDENESSQNTSSTVQYSTVVH [Peptide E75], the Counts/minute bound is 1120 counts/minute.

Take ERPEDLQLVDHVDGGDGILPRQQY [Peptide E80]: the Counts/minute bound is 1210 counts/minute.

As to TVVHSGYRHQVPSVQVFSRSESTQ [Peptide E77], the Counts/minute bound was found to be 1250 counts/minute.

With VPSVQVFSRSESTQPLLDSEERPE [Peptide E78], the Counts/minute bound turned out to be 1230 counts/minute.

For the molecule GSGQMKMFQEVSAADAFGPGTEGQ [Peptide E87], the Counts/minute bound was determined as 1000 counts/minute.

For LDLFKKEKINTEGHSSGIGGSSCM [Peptide E72], the Counts/minute bound came to 1440 counts/minute.

Take ESTQPLLDSEERPEDLQLVDHVDG [Peptide E79]: the Counts/minute bound is 1380 counts/minute.

VSVVEIEANDKKPFPEDLKSLDLF [Peptide E70]: the Counts/minute bound amounted to 1300 counts/minute.

QISDHISQSCGSGQMKMFQEVSAA [Peptide E86]: the Counts/minute bound came out at 1240 counts/minute.

With KKPFPEDLKSLDLFKKEKINTEGH [Peptide E71], the Counts/minute bound stood at 2690 counts/minute.

With TEGQVERFETVGMEAATDEGMPKS [Peptide E89], the Counts/minute bound is 1130 counts/minute.

On to PPRHNFNSKDQMYSDGNFTDVSVV [Peptide E68], for which the Counts/minute bound is 1230 counts/minute.

In the case of HVDGGDGILPRQQYFKQNCSQHES [Peptide E81], the Counts/minute bound worked out at 1100 counts/minute.

In the case of MPKSYLPQTVRQGGYMPQ [Peptide E91], the Counts/minute bound came to 1230 counts/minute.

For VGMEAATDEGMPKSYLPQTVRQGG [Peptide E90], the Counts/minute bound worked out at 1380 counts/minute.

Regarding NEEDFVRLKQQISDHISQSCGSGQ [Peptide E85], the Counts/minute bound was 1110 counts/minute.

For SSCMSSSRPSISSSDENESSQNTS [Peptide E74], the Counts/minute bound is 1130 counts/minute.
